# Assay: soluble on expression in E. coli; label from the status in PepcDB or PDB records
row,Sequence,soluble on expression in E. coli
1,MIYVTFTPYGAFGVKDNKEVSGLEDIEYKKLFNEEEIPDIMFKLKTQPNKIADELKEEWGDEIKLETLSTEPFNIGEFLRNNLFKVGKELGYFNNYDEFRKKMHYWSTELTKKVIKSYAQQKDKIIIQVAEAISDLDKTLNLLSERLREWYSLYFPELDHLVNKHEVYANLITKLGKRKNFTKSQLKKILPSKLAGKIAEAAKNSMGGELEDYDLDVIVKFAEEINHLYEKRKELYNYLEKLMNEEAPNITKLAGVSLGARLIGLAGGLEKLAKMPASTIQVLGAEKALFAHLRMGVEPPKHGIIYNHPLIQGSPHWQRGKIARALACKLAIAARADYVGDYIADELLEKLNKRVEEIRRKYPKPPKKKKKEKPKAKKKEKKGKKEKSKKKKDKKKDKKGKKERKVIGKTKSRKLEHHHHHH,soluble
2,MSLGRNPPPAIGQFWHVTDLHLDPTYHITDDHTKVCASSKGANASNPGPFGDVLCDSPYQLILSAFDFIKNSGQEASFMIWTGDSPPHVPVPELSTDTVINVITNMTTTIQSLFPNLQVFPALGNHDYWPQDQLPVVTSKVYNAVANLWKPWLDEEAISTLRKGGFYSQKVTTNPNLRIISLNTNLYYGPNIMTLNKTDPANQFEWLESTLNNSQQNKEKVYIIAHVPVGYLPSSQNITAMREYYNEKLIDIFQKYSDVIAGQFYGHTHRDSIMVLSDKKGSPVNSLFVAPAVTPVKSVLEKQTNNPGIRLFQYDPRDYKLLDMLQYYLNLTEANLKGESIWKLEYILTQTYDIEDLQPESLYGLAKQFTILDSKQFIKYYNYFFVSYDSSVTCDKTCKAFQICAIMNLDNISYADCLKQLYIKHNYEGHHHHHH,soluble
3,MGSDKIHHHHHHMRWFHKKGELARDGWQSVVDATTPGWEYTGIRIAELGSGESLELNDTGVERIFIPLQGSFDVAHHGQVTHLHGRKSVFDGPTDVLYLPTGQTATLSGQGRVAVAEAPTQEPKEWKYIAPAETPVELRGAGRSSRQVHNFGTPEALDAARLIVCEVITPGENWSSYPPHKHDEHIPGHESKLEEIYYFESAPSRVGGRAEAAEGAFGMFSTYSSPAGEIDINAMVYSGDIALVPFGYHGPAVAAPGYDLYYLNVMAGPDPERIWLINDDPAHAWVRDTWTGQAFDDRLPYENANKEG,not soluble
4,MGSDKIHHHHHHMKLAVYVHVPFCKSKCVYCDFYSVVSEKFDEYFSHLLREIDLYEEVLSESEIKTVYFGGGTPSVVPPSFLKMVLEKLERVSRGFTPDEITIEVNPESVETEKLKIYKQIGINRISLGVQACDDTVLKNAGRLYKEETLKKKAKIVLEQFENVNFDFILGLPGETDITLKKDFRFLEEFPPQHVSLYLLEVDERTRLFDLIQKGLVELPEEDDVERRHDLFVEFLKERGFLRYEISNFAKPGKKSLHNLFYWRNENYLGLGVSAGGHIGRFRYVNASDLKEYEEKITKGELPYEYVHENTEEEEALETVFMGLRIKEGVELNRVKILLPLLEKLQKKYPCYLKVKNGKIFLSEDGMNFSKKILSDLIEWYREGGR,not soluble
5,MADEERLKEFKEANKIVFDPNTRQVWENQNRDGTKPATTFQSEEDIKRAAPESEKDTSATSGIVPTLQNIVATVTLGCRLDLKTVALHARNAEYNPKRFAAVIMRIREPKTTALIFASGKMVVTGAKSEDDSKLASRKYARIIQKIGFAAKFTDFKIQNIVGSCDVKFPIRLEGLAFSHGTFSSYEPELFPGLIYRMVKPKIVLLIFVSGKIVLTGAKQREEIYQAFEAIYPVLSEFRKM,soluble
6,QVRQSPQSLTVWEGETTILNCSYENSAFDYFPWYQQFPGEGPALLIAIRSVSDKKEDGRFTIFFNKREKKLSLHITDSQPGDSATYFCAATGANTGKLTFGHGTILRVHPNIQNPDPAVYQLRDSKSSDKSVCLFTDFDSQTNVSQSKDSDVYITDATVLDMRSMDFKSNSAVAWSNKSDFACANAFNNSIIPEDTFFPS,soluble
7,MGRIRQTFIKRTGEELIEKFADKFTSDFEENKKAVEEVAMISTKPLRNRIAGYVTAKVKKMNALEHHHHHH,not soluble
8,MSLDPTRVDLLSICKEILTYPEYQERLPAGSAHPNIDSPAIKSLYAEIGRHSRQQTHVPSHYQLPPGDHLLIKQLAKITQDLGTPAKLDEIMVTHGAQQAISLALRATTQKGDIVAVESPCYFGNLLMLESLGLKVVEIPSCPRDGMCPEALAKTMATWDIKALIVTPNFTNPTGAMMPLEKRQQLLLASGNIPIIEDDVFGGLSYDKPLPSLSLLDDKQRVIYVNSLSKTLDSRLRIGWMLAGRYRDQIEQYLLCENMGSLNLMQSAVATFLTSGKYRTHTARMGRVYQNNMRRFIQMLHQYLDEYESLKNRYQINAVQGSFLLWLRLPEDTDSYALYQACNKHRISLLPGTVFGTQEQYRHCVRLSVANFGHETDWSHAMQTLAKLIAKRVCEGHHHHHH,soluble
9,MSLTVIRKQDVISSVADALQYISYYHPLDFVKALEKAYQREESQAAKDSIAQILINSRMSAEGHRPICQDTGIVTCFVNIGMGVQWDSTDMTVQQMVDEGVRQAYTNPDNPLRASVLMDPAGKRINTKDNTPAVVHINMVPGDKVDIQIAAKGGGSENKTKMVMLNPSDDIAEWVEKTVPLMGAGWCPPGMLGIGIGGTAEKAAVLAKEALMEHIDIHELIERGPQNAEEELRLDIFNRVNKLGIGAQGLGGLTTVVDVKIKSAPTHAASKPVCMIPNCAATRHVHFTLDGSGPAQLTPPKLEDWPQITWEAGANTRRVNLDNITREEIQTWKTGETVLLSGKILTGRDAAHKRIQTMLQKGEKLPDSVDLKDKFIYYVGPVDAVGDEVVGPAGPTTSTRMDKFTDMMLEEVGVMGMIGKAERGPATVESIKKHKAVYLMAVGGAAYLVAKAIKKARVVAFEDLGMEAIYEFEVEDMPVTVAVDSTGANAHQIGPDTWRVKIAEAAKEGGSHHHHHH,soluble
10,MKTFIWNSNYETGVAKVDDQHQCLVEIINEYSHLLANNTTTETDIELTLNKLIDYTKFHFKDEEQLMYSVGLDTRHITHHEKLHRDILDEISTLLSDQVTDKLSIARYILDLIIHWLVYHILGTDMNMAKLEHHHHHH,not soluble
11,FLPTSREEMDQLGWDSCDVIIVTGDAYVDHPSFGMAIIGRLLEAQGFRVGIIAQPEWQTKDAFMTLGKPNLFFGVTAGNMDSMINRYTADKKIRHDDAYTPNNKGGMRPDRCSLVYSQRCREAYKDVPIVLGGIEASLRRVAHYDYWSDKVRRSILLDAKADILLFGNAERALVEVAHRLANGESINKMVDIRGTAVNLAQVPEHFKIIDSTRIDQPNKPFVPSNPYEVETQCATKGDEKEEAQPITIRPSRHDAKTTAVRLPSFEKLVNDRILYAHASRVLHLETNPYSGRALVQRHGDRELWVNQAPIPLTTEEMDFVFGLYYARVPHPKYGDAKIPAYDMIKTSVNIMRGCF,not soluble
12,MGSDKIHHHHHHMKTSVKFETIFPLTTAPLIQCITNEITCESMANALLYIDAKPIMADDPREFPQMFQQTSALVLNLGHLSQEREQSLLAASDYARQVNKLTVVDLVGYGASDIRNEVGEKLVHNQPTVVKGNLSEMRTFCQLVSHGRGVDGSPLDQSEEAIEELIQALRQQTQKFPQTVFLATGIQDVLVSQEQVIVLQNGVPELDCFTGTGDLVGALVAALLGEGNAPMTAAVAAVSYFNLCGEKAKTKSQGLADFRQNTLNQLSLLMKEKDWFEAVKGRVL,not soluble
13,MSLTRFQDRQEGERVVDFYMIRDREVKRASNGTDYLNLTLERKLEYIPARLWDATEQHKQALIRRAVVKVDGVVTVYRQQKQLNIQRIRLATDEDPVTVAELISKPGLSREELWHELRMIIEEIQDETLLKLVKTMLGKKEIRERFTTIPASKATHHPYYAGLLEHVVEVCQSILQLSLIYGTINRDVVIAAAILHDIGKVAALHDPFAPEYTDEGEMIGHVVLGVELINQTAQELGISMDEPILLAVKHCILSQREQDEGATSFVYGPKTKEAILLAALDQLNGRLNSFELMASHAEERWTYSPLFKRKMFTPDNDEGHHHHHH,soluble
14,MSLRKTVAFGFVGTVLDYAGRGSQRWSKWRPSLCICQQESLVIDRLELLHDARSRSLFETLKRDIASVSPETEVVSVEIELHNPWDFEEVYACLHDFARGYEFQPEKEDYLIHITTGTHVAQICWFLLAEARYLPARLIQSSPPRKKEQPRGAGEVTIIDLDLSLYNAIASRFAEERQQTLDEGHHHHHH,soluble
15,MGSDKIHHHHHHMMTDTHASKNTSTDRSTLDEETVPGGGHTSFILKRGQILQITDVEGGGNVGLLLFNAHQTSERLNLPDTLKGQHTAKLTAGYCLYSDMGRVLAAIVTDTCGWHDSMGGVLNAQEVHEKYGQGRYQELRNGFFRNGMDNLLVEMGKWNLNLQDLLMTINLFSKVTVDAQGQFRFHANHSQAGNYIELYAPMDTLVVLTALQHPMDPNPTYAPRPIALTWSRAEGEDVAKYCREFREENARAFHNTERGYL,not soluble
16,MIKAILIFNNHGKPRLCKFYQHYSEDTQQQIIRETFHLVSKRDENVCNFLEGGLLIGGSDNKLIYRHYATLYFVFCVDSSESELGILDLIQVFVETLDKCFENVCELDLIFHVDKVHNILAEMVMGGMVLETNMNEIVTQIDA,soluble
17,MGSDKIHHHHHHMLTCDVFFASKNKKGEEVCGDSIKVKRESEKIVVSVSDGLGSGIKASILSTLTATIASTMLMNGLPVTDVFRTILATLPICRVRKISYSNLCSVVCDFKNNTCTVVEYEFPVVMLFKGERRVFPEKQGLEIEGKKVFVWQFRSEAGTLLLLATDGLSQAGMGTDLFPLGFGVENIEKEMKHLLKNHVSPENIVRHFVKLAEKLDQEVRGDDTLVACLNFREKRILNLFVGPPEDRKKDEEYVRTFLSLPGKKIVCGGTTGQIFERVTGKKVEIDLYTLSENSPPVGYMEGIDLMTEGIVTLTQVFRYLEGQSEELGYGAKFIVKSLLEADEINFFVGRAINPAHQNPLFSHDISLKFRLVKDIAQILREKGKIVNVQYC,not soluble
18,MDAPLAEQDLKALFLRHARQLQSYLLRKTRDPHLAADLAQESFLRLAEQRHKEPIEHVDAYLYRTAHNLTIDHYRQERRRRTETQPNDDLAGFVADQPGPEESAVDADALARLREIVAELPPRTREIFRLNRLEGLTHAEVARRLEISDSSVQKHLARTLAHVMQALEDSR,not soluble
19,MSLQIKFWPQDLKLAHTWTIASSVTSGSDVTSVGIVQLTDRDGTVGLGEAAPARRYNESTPGSLDFIAKVDATKLSFDNIEASMKYVESLASGQFAAKSAINVALLDGAARKAGKPIYDLLGLGFRNNHHVTSFSIGIDKADVIRKKVLAAEQYPVLKLKVGAADDKANLAALREAAPQKWVRVDANEGWKTKEHALEMIEWLAQDKFIQYIEQPMPADSNPKDIAWLKARSPLPLFGDESYHTAKDVDHCAECYHGVNVKLCKTGGISNAYEALQVARKAGLKTMIGCMIETSILISAAAHLAELCDYLDIDGNLLTTNDPYLGVTAEKGLLSFASAPEKLGLRVRAKEGHHHHHH,soluble
20,GSHMTETVPLILLVPKSRREDLEKAQLAERLRSQFFIDYGVRLPEVLLRDGEGLDDNSIVLLINEIRVEQFTVYFDLMRVVNYSDEVVSFGINPTIHQQGSSQYFWVTHEEGEKLRELGYVLRNALDELYHCLAVTLARNVNEYFGIQETKHMLDQLEAKFPDLLKEVLRHATVQRISEVLQRLLSERVSVRNMKLIMEALALWAPREKDVINLVEHIRGAMARYICHKFANGGELRAVMVSAEVEDVIRKGIRQTSGSTFLSLDPEASANLMDLITLKLDDLLIAHKDLVLLTSVDVRRFIKKMIEGRFPDLEVLSFGEIADSKSVNVIKTI,soluble
21,MGSDKIHHHHHHMQFEMHDHVKGKAMSYPVTSQPQCANTCYQTQLSDWHTGLTDCCNDMPVCLCGTFAPLCLACRISDDFGECCCAPYLPGGLHSLRTGMRERYHIQGSVGHDWAALTFCLPCALCQMARELKIRE,not soluble
